Consider two molecules from US8273705B2, “Conversion of apoptotic proteins” (The Burnham Institute, priority 2002, dated 2012).

Entries after “also recorded” stand apart in the source; their conditions may differ.

Test [1] addresses T1, Bcl-2 (Homo sapiens, UniProt P10415).
T1 construct: expressed in transfected cells; host or cells: HEK293T
The test is described as follows: Co-IP assay of TR3 mutants with Bcl-2 in HEK293T cells. The class given is binding. Particulars: GFP fusions co-transfected with Bcl-2 in HEK293T cells. The procedure: TR3/Bcl-2 interaction assays—Reporter gene assays using NurRE-tk-CAT in CV-1 cells, and GST pull-down assay were described previously (Li, et al. 2000 Science 289, 1159-1164). For the mammalian two-hybrid assays, CV-1 cells were co-transfected with pcDNA-Gal4TAD-TR3 or pcDNA-Gal4TAD-TR3/ΔDBD and pcDNA-Gal4DBD-Bcl-2/ΔTM along with a luciferase reporter gene driven by four copies of the Gal4-binding site. The cells were harvested and reporter gene activity was measured. For Co-IP assays, HEK293T cells were transiently transfected with various expression plasmids using a modified calcium phosphate precipitation method (Wu et al, 1997) in the presence of caspase inhibitors (zVAD-fmk) to prevent degradation of TR3 protein due to apoptosis. Cells were suspended in lysis buffer (50 mM Tris-HCl, PH7.4; 150 mM NaCl; 20 mM EDTA; 1% NP-40; 1 mM PMSF; 50 μg/ml Leupeptin; […]; 0.1 mM Na3VO4; and 1 mM DTT). Cells extracts were cleared by incubation with the Protein A/G plus Agarose beads (Santa Cruz) and then incubated with appropriate antibody and 30 μl of Protein A or G plus Agarose beads overnight at 4° C. Beads were then washed and boiled in Laemmli gel-loading solution before performing SDS-PAGE/immunoblotting using the following polyclonal or monoclonal antibodies: monoclonal mouse anti-GFP (Medical and Biological Laboratories), monoclonal mouse anti-HA (Roche Molecular Biochemicals), monoclonal mouse anti-FLAG (Sigma), monoclonal mouse anti-Myc (Santa Cruz), polyclonal rabbit anti-TR3 (Active Motif), or monoclonal mouse anti-Bcl-2 (Santa Cruz). Immunoreactive products were detected by chemiluminescence with an enhanced chemiluminescence system (ECL) (Amersham).
TR3/ΔDBD, which can constitutively reside on mitochondria, was also analyzed by co-immunoprecipitation (Co-IP) assay for its interaction with Bcl-2. GFP-TR3/ΔDBD was transfected into human embryonic kidney cell line 293T alone or together with a Bcl-2 expression vector. The expressed GFP-TR3/ΔDBD mutant protein as then precipitated by using either anti-Bcl-2 antibody or control IgG and detected by western blotting using anti-GFP antibody. The same membranes were also blotted with anti-Bcl-2 antibody to determine precipitation specificity and efficiency. Input represents 10% of total cell extract used in the precipitation assays.
Several TR3 mutants were analyzed to determine the domain of TR3 which interacts with Bcl-2. The TR3 mutants are schematically represented in FIG. 1. A Co-IP assay was performed, as described above. […] Cell extracts were prepared and incubated with anti-Bcl-2 antibody or control IgG for Co-IP assays. Lysates were immunoprecipitated by using either polyclonal rabbit anti-Bcl-2 antibody or control IgG. Cell lysates and immunoprecipitates were examined by immunoblotting using anti-GFP antibody. The same membranes were also blotted with anti-Bcl-2 antibody (Santa Cruz) to determine IP specificity and efficiency. […] This Co-IP was specific because Bcl-2 co-transfection was necessary. […] Thus, the DC1 region in the TR3 LBD is involved in the Bcl-2 interaction.
To further determine the interaction of DC1 with Bcl-2, a region of hydrophobic amino acids ([…]—SEQ ID NO: 1) was deleted from TR3/ΔDBD, and the resulting mutant (TR3/ΔDBD/Δ471-488) was analyzed for its interaction with Bcl-2. TR3/ΔDBD/[…], with eighteen amino acids from 471 to 488 in the DC1 region deleted from TR3/ΔDBD, TR3/ΔDBD/I483A (with Ile483 replaced with Ala) and TR3/ΔDBD/L487A (with Leu487 replaced with Ala) were analyzed for their interaction with Bcl-2 by in vivo Co-IP assay as described above.

Test [2] concerns 293T cells. As to the kind of experiment: Confocal microscopy of mitochondrial targeting in 293T cells. The class given is cell-based, human. The protocol:
(§1) Subcellular localization assays—Cells were seeded onto cover-slips in 6-well plates overnight, then transiently transfected with GFP-fusion expression plasmids. After 16 hours, cells were washed with PBS and fixed in 4% paraformaldehyde. For mitochondrial staining, cells were then incubated with anti-Hsp60 goat IgG (Santa Cruz, USA), followed by anti-goat IgG conjugated with Cy3 (Sigma). For cyt c staining, cells were incubated with monoclonal anti-cyt c IgG (PharMingen), followed by anti-mouse IgG conjugated with Cy5 (Amersham). Fluorescent images were collected and analyzed using a MRC-1024 MP laser-scanning confocal microscope (Bio-Rad). Subcellular fractionation assays were performed as described (Li, et al. 2000 Science 289:1159-1164). Briefly, cells (1×10^7 cells) suspended in 0.5 ml hypotonic buffer (5 mM Tris-HCl, pH 7.4, 5 mM KCl, 1.5 mM MgCl2, 0.1 mM EGTA, pH 8.0, and 1 mM DTT) were homogenized and cell extracts were centrifuged at 500×g for 5 min. The resulting supernatant was centrifuged at 10,000×g for 30 min at 4° C. to obtain the HM fraction. HM fraction was resuspended in 100 μl lysis buffer (10 mM Tris, pH 7.4, 150 mM NaCl, 1% Triton X-100, 5 mM EDTA, pH 8.0) for immunoblotting analysis.
A. confocal microscopy—First an experiment was performed to determine whether the deletion mutant TR3/ΔDBD targets mitochondria via its interaction with Bcl-2. In confocal microscopy analysis, GFP-TR3/ΔDBD and Bcl-2 were transfected into 293T cells alone or together. […] Bcl-2, TR3/ΔDBD and mitochondria (Hsp60) were visualized using confocal microscopy and the three images were overlaid.

For test [3], the system named is HEK293T cells. The test is described as follows: Subcellular fractionation, heavy membrane (HM) fractions of HEK293T cells. The class given is cell-based, human. The protocol:
as §1, with “analysis. […]” for “analysis.”

T1 sequence (P10415 whole entry): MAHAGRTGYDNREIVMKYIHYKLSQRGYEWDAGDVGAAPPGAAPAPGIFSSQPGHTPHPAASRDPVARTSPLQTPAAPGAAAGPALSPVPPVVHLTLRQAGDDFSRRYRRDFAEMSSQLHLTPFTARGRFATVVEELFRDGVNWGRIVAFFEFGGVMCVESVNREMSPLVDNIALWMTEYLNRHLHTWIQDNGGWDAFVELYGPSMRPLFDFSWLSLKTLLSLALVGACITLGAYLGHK

B1: TR3/ΔDBD/Δ471-488: TR3/ΔDBD with eighteen amino acids from 471 to 488 in the DC1 region deleted (protein)
chain: MPCIQAQYGTPAPSPGPRDHLASDPLTPEFIKPTMDLASPEAAPAAPTALPSFSTFMDGYTGEFDTFLYQLPGTVQPCSSASSSASSTSSSSATSPASASFKFEDFQVYGCYPGPLSGPVDEALSSSGSDYYGSPCSAPSPSTPSFQPPQLSPWDGSFGHFSPSQTYLVLFSRSLHSLLVDVPAFACLSALVLITDRHGLQEPRRVEELQNRIASCLKEHVAAVAGEPQPASCLSRLLGKLPELRTLCTQGLQRIFYLKLEDLVPPPPIIDKIFMDTLPF
modifications: left off: large carriers; small tags and cut ends
notes: TR3/ΔDBD with eighteen amino acids from 471 to 488 in the DC1 region deleted
B1: the “interaction with Bcl-2 (Co-IP)” value in test [1] is “significantly impaired the interaction; also recorded: very weak interaction”. Besides, the colocalization with mitochondria entry in test [2] is reported as “failed to colocalize with mitochondria”. The “accumulation in HM fraction” value in test [3] (either in the absence or presence of Bcl-2) is recorded as “not found in the HM fraction”.

B2: TR3/ΔDBD: TR3 mutant with the DNA binding domain removed; used as GFP fusion (protein)
chain: MPCIQAQYGTPAPSPGPRDHLASDPLTPEFIKPTMDLASPEAAPAAPTALPSFSTFMDGYTGEFDTFLYQLPGTVQPCSSASSSASSTSSSSATSPASASFKFEDFQVYGCYPGPLSGPVDEALSSSGSDYYGSPCSAPSPSTPSFQPPQLSPWDGSFGHFSPSQTYLVLHRLQCARGFGDWIDSILAFSRSLHSLLVDVPAFACLSALVLITDRHGLQEPRRVEELQNRIASCLKEHVAAVAGEPQPASCLSRLLGKLPELRTLCTQGLQRIFYLKLEDLVPPPPIIDKIFMDTLPF
modifications: left off: large carriers; small tags and cut ends
notes: used as GFP fusion
For B2, the “interaction with Bcl-2 (Co-IP)” value in test [1] was “co-precipitated with Bcl-2”. Further, the subcellular distribution result in test [2] (coexpressed with Bcl-2) is “distribution pattern overlaid extensively with that of Hsp60”; in test [2] (expressed alone), “diffuse distribution pattern”. In addition, in test [3] (presence of Bcl-2), the “accumulation in HM fraction” value is “accumulated in the HM fraction”.
